The experiment addresses T1, DNA ligase IV catalytic region (residues 1–609) (human, UniProt P49917 1-609).
T1 construct: Cloned in pOPINS; whether the His6-Sumo tag was removed is told only in the Supplemental Experimental Procedures; the derivative crystals carry nine mercury atoms from thiomersal; the methods point to the recombinant construct for the crystals; also called catalytic region of LigIV
T1 sequence (looked up): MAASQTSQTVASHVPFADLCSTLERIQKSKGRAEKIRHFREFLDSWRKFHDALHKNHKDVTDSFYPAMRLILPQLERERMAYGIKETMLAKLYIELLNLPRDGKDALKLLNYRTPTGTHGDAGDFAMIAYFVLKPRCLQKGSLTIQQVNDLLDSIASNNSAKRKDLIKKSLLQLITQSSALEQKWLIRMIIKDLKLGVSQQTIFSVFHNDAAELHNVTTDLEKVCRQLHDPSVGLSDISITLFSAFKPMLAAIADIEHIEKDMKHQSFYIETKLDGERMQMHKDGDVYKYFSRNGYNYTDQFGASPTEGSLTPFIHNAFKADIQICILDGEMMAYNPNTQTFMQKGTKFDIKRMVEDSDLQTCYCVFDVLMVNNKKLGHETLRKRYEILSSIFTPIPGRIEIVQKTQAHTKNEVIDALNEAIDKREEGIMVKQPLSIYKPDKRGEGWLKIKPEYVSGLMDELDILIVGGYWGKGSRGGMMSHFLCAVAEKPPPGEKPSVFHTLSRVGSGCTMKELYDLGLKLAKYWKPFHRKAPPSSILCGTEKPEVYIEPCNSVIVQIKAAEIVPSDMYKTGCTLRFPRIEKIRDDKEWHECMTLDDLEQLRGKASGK
Nature of the experiment: crystal structure; vapor diffusion, 100 mM MES (pH 5.6–5.7), 2.0 M (NH4)2SO4, 10 mM YCl3; native crystals and crystals soaked in 1 mM thiomersal. As to conditions: both partners purified.

B1: Artemis peptide (residues 485–495) (peptide, UniProt Q96SD1 485-495, looked up)
peptide: DVPQWEVFFKR
notes: holds P487, W489, F492 and F493; also called Artemis fragment; source: synthetic peptide (PNAC facility, Department of Biochemistry, University of Cambridge)
For B1, the binding result was “binds”.

The record behind these values is PMC3664939, “Structure of the Catalytic Region of DNA Ligase IV in Complex with an Artemis Fragment Sheds Light on Double-Strand Break Repair” (Structure(London, England:1993), 2013).
